Source: PMC8585875

Columns and labels:
[1] = target: H6-Rap80(1-137)-7A-Linker (human) (UniProt Q96RL1); assay: pull-down; H6-Rap80(1-137)-7A-Linker on Ni-NTA agarose; 3.5 µM hybrid chain in 50 µl; 50 mM TRIS pH 7.5, 150 mM NaCl, 2 mM TCEP, 0.1% NP-40; 1 h at 4 °C; Coomassie SDS-PAGE, densitometry normalised to Rap80
[2] = target: H6-Rap80(35-124)-S18C-C70S-C121S-7A-Linker, Atto488-labelled (human) (UniProt Q96RL1); assay: fluorescence polarisation; fluorescence anisotropy; hybrid chain titrated to 300 nM Atto488-labelled Rap80(35-124); 20 mM Tris pH 6.8, 100 mM NaCl, 4 mM DTT; single-site binding model

For “K63-diUb-K21-SUMO2 hybrid chain (Srt2A/Srt5M-generated) (from UniProt P0CG48 1-76; P0CG48 1-76; P61956 1-95) (complex)”, which fold affinity against the linearly linked hybrid chain (densitometry of the pull-down) [1] is on record?
The fold affinity against the linearly linked hybrid chain (densitometry of the pull-down) was 2 fold.

With “linear diUb-SUMO2 hybrid chain, wt/LPT-linked (from UniProt P0CG48 1-76; P0CG48 1-76) (complex)” as the substance, how does the Kd [2] read?
Its Kd is 1200 nM.
